Molecular target: EGFRvIII (表皮生长因子受体III型突变体) (human) (UniProt P00533)
Assay: flow cytometry; antibody supernatant on EGFRvIII-PBMC engineered cells, detected with anti-mouse-APC IgG

B1: Anti EGFRvIII抗体 (抗EGFRvIII单克隆抗体) (antibody, V domains shown)
VH: QVQTQQSGTELVRPGALVKLSCKPSGFNIKDYYMHWVKQRPEQGLEWIGWIDPENGKTKYAPKFQGKAIITADRSSNTAYLQLSSLTSEDTAVYYCAGTADWGQGTTVTVSS
VL: DIQLTQSPLTLSVSIGQPASISCKSSQSLLHSDGETYLNWLLQRPGQSPKRLIYLVSKLDSGVPDRFTGTGSGTDFTLKISRVEAEDLGVYYCWQGKHFPYTFGGGTKLEI
结合率 (APC阳性比率): 93.7%

From patent publication CN116715768A
